Data as given in patent publication US6011020.
Read-outs that look alike come from different tables or passages of the source.

Target: bFGF (basic fibroblast growth factor) (UniProt P09038)
Sequence (P09038 143-288): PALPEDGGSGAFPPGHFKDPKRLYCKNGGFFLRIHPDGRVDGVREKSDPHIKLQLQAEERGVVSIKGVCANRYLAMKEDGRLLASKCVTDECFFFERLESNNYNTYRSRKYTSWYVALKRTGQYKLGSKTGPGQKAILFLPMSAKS

Sequence: GGGCTTTGTAAAACCCCGC [225T3N-PEG-3400]
- Kd (3'-amino-modifier C7 conjugated to PEG 3400 [3' end after position 19: NN = non-nucleotide 3'-amino-modifier C7 and PEG 3400, left out], binding assay with 5'-32P-labeled conjugate, assay type not stated): 1 nM

Sequence: GGGCTTTGTAAAACCCCGC [225T3]
- Kd (reference ligand, same affinity as PEG and cholesterol conjugates, binding assay type not stated): 1 nM

Sequence: GGGCTTTGTAAAACCCCGC [225t3-Chol]
- Kd (3'-tetraethyleneglycol cholesterol, binding assay with 5'-32P-labeled conjugate, assay type not stated): 1 nM
